In patent US20200377573A1 (Daiichi Sankyo, published 2020):
Where two headings read alike, the source gives them in different places.

Key:
Test in all cases: cell-based or functional assay
HTRA1 (cat) [1] = target: T1, HTRA1 (cat) (human, UniProt Q92743 158-373)
HTRA1 (full) [2] = target: T2, HTRA1 (full) (human, UniProt Q92743 23-480)
HTRA1 (cat) [3] = target: T1, HTRA1 (cat); remark: listed apart in the source
HTRA1 (full) [4] = target: T2, HTRA1 (full); remark: listed apart in the source

T2 sequence (Q92743 23-480): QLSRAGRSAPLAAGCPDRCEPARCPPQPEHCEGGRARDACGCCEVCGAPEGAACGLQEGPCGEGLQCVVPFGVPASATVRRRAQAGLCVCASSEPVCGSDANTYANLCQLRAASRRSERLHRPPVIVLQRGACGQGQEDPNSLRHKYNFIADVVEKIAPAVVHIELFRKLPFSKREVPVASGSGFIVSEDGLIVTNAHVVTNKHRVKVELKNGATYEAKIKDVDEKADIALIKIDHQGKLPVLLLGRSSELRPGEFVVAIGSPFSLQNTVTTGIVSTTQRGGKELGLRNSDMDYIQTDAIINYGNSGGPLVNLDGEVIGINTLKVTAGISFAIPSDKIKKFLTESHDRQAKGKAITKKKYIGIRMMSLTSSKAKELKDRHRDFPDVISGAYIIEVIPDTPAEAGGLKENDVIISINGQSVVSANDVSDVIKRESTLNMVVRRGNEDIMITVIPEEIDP
T1 sequence (Q92743 158-373, form in doubt): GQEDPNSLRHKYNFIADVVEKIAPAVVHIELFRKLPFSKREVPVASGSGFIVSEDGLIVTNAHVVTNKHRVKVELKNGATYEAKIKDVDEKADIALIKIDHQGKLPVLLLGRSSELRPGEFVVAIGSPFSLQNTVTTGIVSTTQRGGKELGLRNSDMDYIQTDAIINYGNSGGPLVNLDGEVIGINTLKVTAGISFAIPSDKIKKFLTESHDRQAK

| Binder | IC50 (nM) for HTRA1 (cat), decomposition rate of substrate peptide H2-Opt (HTRA1 (cat) [1]) | IC50 (nM) for HTRA1 (full), decomposition rate of substrate peptide H2-Opt (HTRA1 (full) [2]) | IC50 (nM) for HTRA1 (cat), decomposition rate of substrate peptide H2-Opt (HTRA1 (cat) [3]) | IC50 (nM) for HTRA1 (full), decomposition rate of substrate peptide H2-Opt (HTRA1 (full) [4]) |
| --- | --- | --- | --- | --- |
| peptide derivative H322AT (designed binder) DPQFGLFSKYRTPNCSQHEGMACYALYEPVCGSDMSTYANECTLCMKIREGGHNIKIIRNGPCGG | 45 nM | 25 nM |  |  |
| peptide H228 (designed binder) DPQFGLFSKYRTPNCGHYNGWACQAFFEPVCGSDMSTYANECTLCMKIREGGHNIKIIRNGPCGG | 71 nM | 38 nM |  |  |
| peptide H322 (designed binder) DPQFGLFSKYRTPNCSQHEGMACYALYEPVCGSDMSTYVNECALCMKIREGGHNIKIIRNGPCGG | 50 nM | 17 nM |  |  |
| peptide H223 (designed binder) DPQFGLFSKYRTPNCTMDMGMACWAFYEPVCGSDMSTYANECTLCMKIREGGHNIKIIRNGPCGG | 41 nM | 66 nM |  |  |
| peptide H321 (designed binder) DPQFGLFSKYRTPNCSDFDGMACYAFYEPVCGSDMSTYMNECALCMKIREGGHNIKIIRNGPCGG | 48 nM | 29 nM |  |  |
| peptide H308 (designed binder) DPQFGLFSKYRTPNCSDHAGMACVALYEPVCGSDMSTYENECVLCMKIREGGHNIKIIRNGPCGG | 37 nM | 15 nM |  |  |
| peptide H218 (designed binder) DPQFGLFSKYRTPNCLKSEGMACYAYYEPVCGSDMSTYANECTLCMKIREGGHNIKIIRNGPCGG | 72 nM | 55 nM |  |  |

Results, then the binder that gave them:

| IC50 (nM) for HTRA1 (cat), decomposition rate of substrate peptide H2-Opt (HTRA1 (cat) [1]) | IC50 (nM) for HTRA1 (full), decomposition rate of substrate peptide H2-Opt (HTRA1 (full) [2]) | IC50 (nM) for HTRA1 (cat), decomposition rate of substrate peptide H2-Opt (HTRA1 (cat) [3]) | IC50 (nM) for HTRA1 (full), decomposition rate of substrate peptide H2-Opt (HTRA1 (full) [4]) | Binder |
| --- | --- | --- | --- | --- |
| 43 nM | 24 nM |  |  | peptide M7 (designed binder) DPQFGLFSKYRTPNCSDHAGMACVAFYEPVCGSDMSTYANECTLCMKIREGGHNIKIIRNGPCGG |
| 49 nM | 31 nM |  |  | peptide derivative H308AT (designed binder) DPQFGLFSKYRTPNCSDHAGMACVALYEPVCGSDMSTYANECTLCMKIREGGHNIKIIRNGPCGG |
|  |  | 12.9 nM | 12.2 nM | peptide derivative H322AT_D1G_S16A (designed binder) GPQFGLFSKYRTPNCAQHEGMACYALYEPVCGSDMSTYANECTLCMKIREGGHNIKIIRNGPCGG |
|  |  | 7.9 nM | 9.1 nM | peptide derivative H308_D1G_S16A (designed binder) GPQFGLFSKYRTPNCADHAGMACVALYEPVCGSDMSTYENECVLCMKIREGGHNIKIIRNGPCGG |
| 46 nM | 18 nM |  |  | peptide derivative H321AT (designed binder) DPQFGLFSKYRTPNCSDFDGMACYAFYEPVCGSDMSTYANECTLCMKIREGGHNIKIIRNGPCGG |
|  |  | 9 nM | 12 nM | peptide derivative H321AT_D1G_S16A (designed binder) GPQFGLFSKYRTPNCADFDGMACYAFYEPVCGSDMSTYANECTLCMKIREGGHNIKIIRNGPCGG |
